Drawing on patent US20160060340A1, this text covers affinity as percent of that of HuRA15-7CTAcc antibody and Kd for three substances.

pKd: −log10 of the molar value.

Assay [1] deals with FOLR1-mycHis (human) (UniProt P15328). As to the kind of experiment: SPR as in Example 29, antibody captured, FOLR1-mycHis as analyte.
For assay [2] the target is unchanged. In words: SPR (Biacore T100), antibody captured on CM5 chip, FOLR1-mycHis as analyte, single-cycle kinetics, 1:1 binding model. (In SPR one partner is held on a chip, and binding of the other changes the refractive index at the surface.)

In general, pKd refers to the negative decadic logarithm of the Kd, by convention in mol/L. High values mean a low Kd, low ones a high Kd.

Sequence of FOLR1-mycHis (human) (P15328 25-233): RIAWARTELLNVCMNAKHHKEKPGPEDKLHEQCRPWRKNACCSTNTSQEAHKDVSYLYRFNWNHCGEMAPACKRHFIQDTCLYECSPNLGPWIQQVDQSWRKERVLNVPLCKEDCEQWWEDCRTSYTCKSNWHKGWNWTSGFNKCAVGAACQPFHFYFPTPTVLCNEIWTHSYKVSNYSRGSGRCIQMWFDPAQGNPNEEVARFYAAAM

In the assay with FOLR1-mycHis (human) [1], MORAb-003DF antibody gave an affinity as percent of that of HuRA15-7CTAcc antibody of 1.1%.

In the assay with FOLR1-mycHis (human) [2], MOv18 antibody (ALEXIS BIO…) gave a pKd of 7.04.

LK26 antibody (GeneTex) had a pKd with FOLR1-mycHis (human) [2] of 7.18.
